Kd and kon data for two substances are collected here from paper PMC3874396.

Test [1] concerns the target SRP with fluorescein-labeled Ffh(C421) (Escherichia coli) (UniProt P0AGD7). The test can be described thus: […].
Test [2] has as its target RNC^EspP-SRP complex (SRP with DACM-labeled Ffh(C235), loaded with RNC^EspP) (Escherichia coli | not stated) (UniProt P0AGD7). The test can be described thus: FRET or BRET.
The target of test [3] is RNC^EspP-Hydro-SRP complex (SRP with DACM-labeled Ffh(C235), loaded with RNC^EspP-Hydro) (Escherichia coli | not stated) (UniProt P0AGD7). The test can be described thus: FRET or BRET.

In test [1], “RNC^EspP (ribosome-nascent chain complex displaying the EspP signal sequence) (from UniProt Q7BSW5 56-88)” displayed a Kd of 13.6 nM.
With “BODIPY-FL (acceptor)-labeled FtsY(C487) (from UniProt P10121 1-497) (receptor)”, the results for the Kd in test [2] and in test [3] were 311 nM and 300 nM, respectively. Further, the kon in test [2] worked out at 9200 M⁻¹ s⁻¹; in test [3] it was 15200 M⁻¹ s⁻¹.

Usually Kd stands for the free concentration of one partner at which half of the binding sites on the other are occupied at equilibrium, for simple one-to-one binding. For orientation: kon means the rate constant with which the complex forms.
